Assay results taken from article PMC12830947, “Structure and mechanism of the broad spectrum CRISPR-associated ring nuclease Crn4” (Nature Communications, 2025).
One block for each compound: values may come before it.

Tests used:
[1] = molecular target: Actinomyces procaprae Crn4a H15A variant (Actinomyces procaprae); experiment: crystal structure; Crn4a H15A at 11 mg/mL with 1.2 molar excess of cA6, sitting drop at 293 K, 23.8% PEG 3350, 0.2 M magnesium chloride, 0.1 M Bis-Tris pH 5.5; 1.44 Å
[2] = molecular target: Actinomyces procaprae Crn4a (CRISPR ring nuclease 4, subfamily a), wild type (Actinomyces procaprae); experiment: crystal structure; apo Crn4a at 13 mg/mL, sitting drop at 293 K, 0.1 M sodium acetate pH 4.5, 22% v/v PEG Smear Broad; 2.34 Å
[3] = molecular target: T1, Crn4b (Hyphomicrobiales bacterium, UniProt A0ACM8DFW0); experiment: HPLC ring nuclease assay; type: biochemical; conditions: pH 7.5, 250 mM NaCl, 1 mM EDTA, 37 C
T1 construct: synthetic codon-optimised gene, pEhisV5TEV, E. coli C43(DE3); His tag removed by TEV; homodimer
T1 sequence (A0ACM8DFW0 5-128): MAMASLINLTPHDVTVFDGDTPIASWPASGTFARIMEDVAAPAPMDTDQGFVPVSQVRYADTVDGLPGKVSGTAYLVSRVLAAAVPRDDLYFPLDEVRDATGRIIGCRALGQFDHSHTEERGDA

[4] = molecular target: Hyphomicrobiales bacterium Crn4b (CRISPR ring nuclease 4, subfamily b), wild type (Hyphomicrobiales bacterium); experiment: crystal structure; apo Crn4b at 15 mg/mL, sitting drop at 293 K, 20% PEG 6000, 10% ethylene glycol, 0.1 M calcium chloride; 1.09 Å
[5] = molecular target: T2, Crn4a (Actinomyces procaprae, UniProt Z9F5G1FLT2); experiment: X-ray co-crystal structure, […] A; type: binding; conditions: active site at dimer interface, one cA6 per dimer; two Mg2+; pH 5.5; inactive variant
T2 construct: synthetic codon-optimised gene, pEhisV5TEV, E. coli C43(DE3); His tag removed by TEV; homodimer, one cA6 per dimer at the dimer interface
T2 sequence (Z9F5G1FLT2 1-149): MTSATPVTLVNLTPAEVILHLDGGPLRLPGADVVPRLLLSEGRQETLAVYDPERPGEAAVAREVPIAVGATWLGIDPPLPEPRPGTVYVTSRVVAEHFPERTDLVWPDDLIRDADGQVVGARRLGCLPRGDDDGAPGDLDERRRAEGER

Compound: Actinomyces procaprae Crn4a H15A variant (enzyme)
- stoichiometry N [1]: 2

- stoichiometry N [2]: 2
Compound: Actinomyces procaprae Crn4a (CRISPR ring nuclease 4, subfamily a), wild type (enzyme)

Compound: Nc1ncnc2c1ncn2[C@@H]1O[C@@H]2COP(=O)(O)O[C@H]3[C@@H](O)[C@H](n4cnc5c(N)ncnc54)O[C@@H]3COP(=O)(O)O[C@H]3[C@@H](O)[C@H](n4cnc5c(N)ncnc54)O[C@@H]3COP(=O)(O)O[C@H]2[C@H]1O [cA3]
- HPLC ring nuclease assay ([3]; intermediate A3>P): Crn4b degraded cA4 and cA3 but was inactive against cA6

- stoichiometry N [4]: 2
Compound: Hyphomicrobiales bacterium Crn4b (CRISPR ring nuclease 4, subfamily b), wild type (enzyme)

Compound: Nc1ncnc2c1ncn2[C@@H]1O[C@@H]2COP(=O)(O)O[C@H]3[C@@H](O)[C@H](n4cnc5c(N)ncnc54)O[C@@H]3COP(=O)(O)O[C@H]3[C@@H](O)[C@H](n4cnc5c(N)ncnc54)O[C@@H]3COP(=O)(O)O[C@H]3[C@@H](O)[C@H](n4cnc5c(N)ncnc54)O[C@@H]3COP(=O)(O)O[C@H]2[C@H]1O [cA4, cyclic tetra-adenylate]
- HPLC ring nuclease assay ([3]; sequential cleavage via A4>P): Crn4b degraded cA4 and cA3 but was inactive against cA6

Compound: Nc1ncnc2c1ncn2[C@@H]1O[C@@H]2COP(=O)(O)O[C@H]3[C@@H](O)[C@H](n4cnc5c(N)ncnc54)O[C@@H]3COP(=O)(O)O[C@H]3[C@@H](O)[C@H](n4cnc5c(N)ncnc54)O[C@@H]3COP(=O)(O)O[C@H]3[C@@H](O)[C@H](n4cnc5c(N)ncnc54)O[C@@H]3COP(=O)(O)O[C@H]3[C@@H](O)[C@H](n4cnc5c(N)ncnc54)O[C@@H]3COP(=O)(O)O[C@H]3[C@@H](O)[C@H](n4cnc5c(N)ncnc54)O[C@@H]3COP(=O)(O)O[C@H]2[C@H]1O [cA6, cyclic hexa-adenylate]
- X-ray co-crystal structure, 1.44 A [5]: The structure of Crn4a in complex with cA6 shows the ligand binds at the dimer interface
